Results reported in PMC4191399.
Residue numbers refer to the chain shown, from its start.

Columns and labels:
Assay in all cases: fluorescence polarization
Conditions in all cases: internal 6-carboxyfluorescein in backbone between U12 and C13 (central tetraloop bases); 25 mM MOPS pH 7.4, 150 mM KCl, 2 mM DTT, 2 mM MgCl2, 0.01% Triton X-100, 1 nM RNA, room temperature, 1 h
[1] = biological target: T1, RIG-I K788A K788A (Homo sapiens) (UniProt O95786)
T1 sequence: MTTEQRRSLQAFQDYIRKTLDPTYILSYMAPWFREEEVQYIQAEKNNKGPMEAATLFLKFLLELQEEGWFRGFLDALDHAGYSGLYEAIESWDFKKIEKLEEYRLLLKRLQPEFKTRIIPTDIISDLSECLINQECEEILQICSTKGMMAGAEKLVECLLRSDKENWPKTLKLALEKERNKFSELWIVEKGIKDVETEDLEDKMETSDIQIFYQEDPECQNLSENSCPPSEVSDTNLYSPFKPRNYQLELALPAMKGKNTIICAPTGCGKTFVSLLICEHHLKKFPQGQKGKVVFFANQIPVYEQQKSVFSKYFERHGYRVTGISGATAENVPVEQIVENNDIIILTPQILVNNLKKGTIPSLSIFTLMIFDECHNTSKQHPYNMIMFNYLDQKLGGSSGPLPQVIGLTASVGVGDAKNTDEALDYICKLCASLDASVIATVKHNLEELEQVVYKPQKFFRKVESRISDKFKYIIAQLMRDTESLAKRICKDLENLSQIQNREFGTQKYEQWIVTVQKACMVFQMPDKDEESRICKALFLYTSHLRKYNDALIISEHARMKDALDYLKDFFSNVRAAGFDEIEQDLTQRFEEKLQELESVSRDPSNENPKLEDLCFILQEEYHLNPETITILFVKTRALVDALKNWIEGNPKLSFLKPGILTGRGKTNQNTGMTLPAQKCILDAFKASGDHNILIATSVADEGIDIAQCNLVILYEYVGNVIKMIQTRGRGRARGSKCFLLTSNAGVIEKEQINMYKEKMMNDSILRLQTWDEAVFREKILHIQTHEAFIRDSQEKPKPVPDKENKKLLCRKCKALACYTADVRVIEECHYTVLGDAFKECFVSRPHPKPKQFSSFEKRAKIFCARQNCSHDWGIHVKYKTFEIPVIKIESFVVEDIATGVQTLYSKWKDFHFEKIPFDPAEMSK

[2] = biological target: T2, RIG-I K788A/R791A K788A;R791A (Homo sapiens) (UniProt O95786)
T2 sequence: T1 sequence with R791A

[3] = biological target: T3, RIG-I R791A R791A (Homo sapiens) (UniProt O95786)
T3 sequence: T1 sequence with A788K, R791A

## GGACGUACGUUUCGACGUACGUCC [5'OH10L-F]
[1]
  Kd: 21.6 nM
[2]
  Kd: 166 nM
[3]
  Kd: 50.7 nM
